According to PMC12572175:

B1: sdAb n501 R95A (protein)
chain: EVQLVESGGGLVQPGGSLRLSCAASDFTFRNYEMSWVRQAPGKGLEWVSSISGSGGSTYYAHSLKGRFTISRDNSKNTLYLQMNSLAAEDTAIYYCARLRDGFNNGFDYWGQGTLVTVSS
B2: sdAb n501 K72A (protein)
chain: EVQLVESGGGLVQPGGSLRLSCAASDFTFRNYEMSWVRQAPGKGLEWVSSISGSGGSTYYAHSLAGRFTISRDNSKNTLYLQMNSLRAEDTAIYYCARLRDGFNNGFDYWGQGTLVTVSS
B3: sdAb n501 S79A (protein)
chain: EVQLVESGGGLVQPGGSLRLSCAASDFTFRNYEMSWVRQAPGKGLEWVSSISGSGGSTYYAHSLKGRFTIARDNSKNTLYLQMNSLRAEDTAIYYCARLRDGFNNGFDYWGQGTLVTVSS
B4: sdAb n501 S18A (protein)
chain: EVQLVESGGGLVQPGGALRLSCAASDFTFRNYEMSWVRQAPGKGLEWVSSISGSGGSTYYAHSLKGRFTISRDNSKNTLYLQMNSLRAEDTAIYYCARLRDGFNNGFDYWGQGTLVTVSS
B5: sdAb n501 Y67A (protein)
chain: EVQLVESGGGLVQPGGSLRLSCAASDFTFRNYEMSWVRQAPGKGLEWVSSISGSGGSTYAAHSLKGRFTISRDNSKNTLYLQMNSLRAEDTAIYYCARLRDGFNNGFDYWGQGTLVTVSS
B6: sdAb n501 G16A (protein)
chain: EVQLVESGGGLVQPAGSLRLSCAASDFTFRNYEMSWVRQAPGKGLEWVSSISGSGGSTYYAHSLKGRFTISRDNSKNTLYLQMNSLRAEDTAIYYCARLRDGFNNGFDYWGQGTLVTVSS
B7: sdAb n501 T65A (protein)
chain: EVQLVESGGGLVQPGGSLRLSCAASDFTFRNYEMSWVRQAPGKGLEWVSSISGSGGSAYYAHSLKGRFTISRDNSKNTLYLQMNSLRAEDTAIYYCARLRDGFNNGFDYWGQGTLVTVSS
B8: sdAb n501 N92A (protein)
chain: EVQLVESGGGLVQPGGSLRLSCAASDFTFRNYEMSWVRQAPGKGLEWVSSISGSGGSTYYAHSLKGRFTISRDNSKNTLYLQMASLRAEDTAIYYCARLRDGFNNGFDYWGQGTLVTVSS
B9: sdAb n501 T77A (protein)
chain: EVQLVESGGGLVQPGGSLRLSCAASDFTFRNYEMSWVRQAPGKGLEWVSSISGSGGSTYYAHSLKGRFAISRDNSKNTLYLQMNSLRAEDTAIYYCARLRDGFNNGFDYWGQGTLVTVSS

Assays:
[1] = target: Protein A domain D; assay: BLI; details: chain shown with the change;; parent: 35.3 nM
[2] = target: Protein A domain D; assay: ELISA; details: chain shown with the change;; parent: 7.5 nM

Row | Binder | Kd [1] [nM] | EC50 [2] [nM]
1 | B1 | 431 | 404
2 | B2 | 1360 | 685
3 | B3 | 372 | 245
4 | B4 | 136 | 709
5 | B5 |  | 162
6 | B6 | 96.3 | 92
7 | B7 | 1030 | 
8 | B8 |  | 151
9 | B9 |  | 200
